Source: the supplement of paper PMC9732359
± gives the uncertainty stated by the source.

Test: protein stability index of a GFP-peptide fusion (yeast GPS) (PSI 1-4); higher = more stable; sorted into four equal gates, so the index is relative within each strain
How it was run: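 The protein stability index of a peptide was calculated by multiplying its read frequency in each gate by that gate's number and adding the products. The peptides were tiled 17-residue stretches of yeast proteins, fused downstream of GFP on a Cherry-expressing plasmid and carried in yeast as a pooled library. Mid-log cultures in leucine-free medium were sorted into four equal gates by GFP/Cherry ratio, and each gate's plasmids were PCR-amplified and Illumina-sequenced.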

Row | Sequence | protein stability index (doa10∆) | protein stability index (pdr5∆) | protein stability index (san1∆) | protein stability index (ubr1∆)
1 | IAGINKKKGLDENTSGK [PRP28] | 3.48 ± 0.067 | 3.47 ± 0.089 | 3.44 ± 0.056 | 3.6 ± 0.075
2 | GAHGYSGFYTFSLLDHH [PRE1] | 2.94 ± 0.19 | 2.44 ± 0.16 | 2.92 ± 0.098 | 2.76 ± 0.12
3 | SLKNDLPQFRSSIQESL [ECM29] | 2.9 ± 0.076 | 2.92 ± 0.07 | 3.22 ± 0.077 | 3.07 ± 0.087
4 | EATLESKLKEEEAALLI [ESC2] | 2.86 ± 0.067 | 3.05 ± 0.058 | 2.88 ± 0.038 | 2.91 ± 0.05
5 | RADTDLAMNDDDFLSKK [SNF2] | 3.35 ± 0.094 | 3.59 ± 0.079 | 3.22 ± 0.076 | 3.42 ± 0.067
6 | SLNNSDSLISGVKQKIT [BRR2] | 2 ± 0.085 | 1.87 ± 0.056 | 1.61 ± 0.16 | 2.31 ± 0.049
7 | HSDMASKMYNTDKKAFL [PRP8] | 2.91 ± 0.057 | 2.65 ± 0.056 | 2.89 ± 0.051 | 2.98 ± 0.059
8 | VQYLSGAHGNSDPVCLF [POP3] | 2.96 ± 0.12 | 2.83 ± 0.18 | 3.04 ± 0.11 | 2.75 ± 0.063
9 | PKWERVFLFDIEKVDRE [RRI2] | 2.4 ± 0.1 | 2.33 ± 0.056 | 2.1 ± 0.1 | 2.57 ± 0.073
10 | AMANAPGNNIPYMNHKN [GAL11] | 2.83 ± 0.17 | 3.26 ± 0.19 | 2.6 ± 0.18 | 2.75 ± 0.16
11 | IRNVIMSASNANDFQLT [SRB8] | 2.06 ± 0.048 | 2.34 ± 0.058 | 2.24 ± 0.087 | 2.19 ± 0.073
12 | NTQDLLLLLSLFKKITN [YML103C/NUP188] | 1.26 ± 0.038 | 1.3 ± 0.033 | 1.58 ± 0.068 | 1.55 ± 0.036
13 | NGDEGDDENEPKRKRRL [YOR098C/NUP1] | 3.38 ± 0.11 | 3.24 ± 0.14 | 3.17 ± 0.083 | 3.06 ± 0.071
14 | DAIIPFAAIPEQGIELE [FAS2] | 3.12 ± 0.15 | 2.84 ± 0.2 | 3.42 ± 0.084 | 3.41 ± 0.1
15 | VRHGRAGATTSRFIPLK [RPS15] | 2.62 ± 0.076 | 2.56 ± 0.062 | 2.89 ± 0.042 | 3.06 ± 0.064
16 | ITKLHLDKDRKALIQRK [RPL26A] | 2.1 ± 0.13 | 1.92 ± 0.094 | 2.49 ± 0.16 | 1.51 ± 0.091
17 | AMIDAGALEEITKDHKV [FAS2] |  | 2.99 ± 0.14 |  | 2.19 ± 0.2
18 | LDGKFSLFHTAVSVANG [RPN2] | 2.09 ± 0.056 | 2.03 ± 0.057 | 2.45 ± 0.077 | 2.37 ± 0.06
19 | TLSYDDISAAIVHSSDG [DLS1] | 2.65 ± 0.046 | 2.82 ± 0.053 | 2.72 ± 0.04 | 2.66 ± 0.046
20 | IDEAHRIKNEQSALSQI [ISW2] | 2.6 ± 0.1 | 2.17 ± 0.091 | 1.67 ± 0.089 | 3 ± 0.069
21 | EDLFDDYPSTSLDIRHD [NUT1] | 1.81 ± 0.081 | 2.9 ± 0.077 | 3.09 ± 0.058 | 2.05 ± 0.056
22 | FQHADNSSMRYGYWFDC [AAR2] | 3.06 ± 0.11 | 2.77 ± 0.12 | 2.15 ± 0.089 | 3.14 ± 0.14
23 | LNVSNTKENGDFTLPED [PRP8] | 2.98 ± 0.1 | 3.14 ± 0.11 | 3.12 ± 0.049 | 3.21 ± 0.069
24 | SDELHNQSTIYEDEELS [LIN1] | 3 ± 0.079 | 2.87 ± 0.098 | 3.11 ± 0.07 | 2.97 ± 0.077
25 | AVVGQQIISGNRVPDGF [RPO31] |  | 3.28 ± 0.28 | 2.88 ± 0.2 | 2.65 ± 0.13
26 | VIQDEVLAHRIGLVPLK [RPC40] | 2.94 ± 0.27 |  |  | 
27 | KGRNNESNNKKYPIFTG [YDL088C/ASM4] | 2.87 ± 0.064 | 2.95 ± 0.063 | 2.67 ± 0.059 | 2.9 ± 0.049

Row | Sequence | protein stability index (doa10∆) | protein stability index (pdr5∆) | protein stability index (san1∆) | protein stability index (ubr1∆)
28 | PANAEPQAVTITSIMDD [ITC1] | 2.39 ± 0.11 | 2.83 ± 0.09 | 2.49 ± 0.069 | 3.02 ± 0.11
29 | MSAAPVQDKDTLSNAER [GAL11] | 3.6 ± 0.15 | 3.07 ± 0.16 | 3.34 ± 0.073 | 3.04 ± 0.079
30 | MSQAVNAKKRVFKTHSY [RPS15] | 2.57 ± 0.055 | 1.72 ± 0.035 | 2.19 ± 0.11 | 2.63 ± 0.061
31 | TPISNEQTEGEPKKKRG [SRP68] | 3.16 ± 0.12 | 3.27 ± 0.17 | 3.27 ± 0.11 | 3.27 ± 0.068
32 | AKILSQAPTELELQVAQ [RPS7A] | 2.48 ± 0.048 | 2.75 ± 0.052 | 2.3 ± 0.053 | 2.5 ± 0.046
33 | EPILGQITLTFISELCS [YML103C/NUP188] | 2.6 ± 0.06 | 2.32 ± 0.062 | 3.1 ± 0.055 | 3.02 ± 0.044
34 | YLACKVEECPQYIRTLV [SSN8] | 1.25 ± 0.14 | 1.27 ± 0.14 | 1.68 ± 0.16 | 1.96 ± 0.17
35 | SLPEELKKRYDLSYNFN [YMR129W/POM152] | 2.84 ± 0.1 | 2.67 ± 0.094 | 2.9 ± 0.08 | 2.94 ± 0.091
36 | VTHDCYRVTLESILQMN [RPC34] | 3.29 ± 0.28 | 2.39 ± 0.27 | 2.66 ± 0.16 | 
37 | FAKFIHHIHHFEKKELQ [IRR1] | 1.72 ± 0.048 | 2.74 ± 0.064 | 2.18 ± 0.12 | 2.13 ± 0.056
38 | LHKEQWQSGLKMYDYEE [RPN11] | 2.47 ± 0.081 | 2.8 ± 0.081 | 2.28 ± 0.096 | 2.39 ± 0.053
39 | VLKSHSNDFEEGSTIRY [YMR129W/POM152] | 2.44 ± 0.075 | 2.8 ± 0.099 | 2.93 ± 0.067 | 2.88 ± 0.068
40 | ITKLLEINLSKIFQTTP [YCS4] | 2.58 ± 0.054 | 2.23 ± 0.044 | 2.43 ± 0.042 | 2.6 ± 0.033
41 | GAGIQIIMQADLALKMG [FAS2] | 1.84 ± 0.094 | 2.09 ± 0.065 | 1.73 ± 0.071 | 2.03 ± 0.051
42 | IQQVVEYADNDEDKFKK [PRP28] | 3.06 ± 0.072 | 3.03 ± 0.093 | 3.24 ± 0.084 | 3.17 ± 0.047
43 | EPKKPSFTFASSKTSQP [YOR098C/NUP1] | 2.93 ± 0.047 | 2.88 ± 0.037 | 2.9 ± 0.045 | 3.04 ± 0.031
44 | TIKVVKRSMDAEQLGHA [RPP1] | 3.18 ± 0.067 | 3.28 ± 0.07 | 3.41 ± 0.042 | 3.38 ± 0.077
45 | QEMIDILETIFRGARKN [DIB1] | 2.83 ± 0.14 |  | 2.77 ± 0.17 | 
46 | QPKGVILYGPPGTGKTL [RPT6] | 3.47 ± 0.15 | 2.91 ± 0.21 | 3.3 ± 0.15 | 2.95 ± 0.21
47 | TGITKKDEDEEADEDMK [PRE9] | 3.09 ± 0.057 | 3.3 ± 0.074 | 3.06 ± 0.064 | 3.07 ± 0.061
48 | IFFDEIDAVGGARFDDG [RPT1] | 3.01 ± 0.17 | 2.77 ± 0.15 | 3.24 ± 0.088 | 3.11 ± 0.089
49 | DDSLNRLAQNDGLLKNV [RPS21A] | 2.77 ± 0.15 | 3.04 ± 0.12 | 3.16 ± 0.13 | 3.38 ± 0.18
50 | GLVNPKTVQSMTQRAIQ [SWI3] | 3.25 ± 0.14 | 2.25 ± 0.14 | 2.39 ± 0.14 | 2.05 ± 0.092
51 | PLINLALIDTEFANFEL [YML103C/NUP188] | 2.71 ± 0.083 | 2.72 ± 0.071 | 2.5 ± 0.089 | 2.95 ± 0.073
52 | LEQKIHEVEEILNELQP [SMC1] | 3.04 ± 0.15 | 2.73 ± 0.22 | 2.99 ± 0.17 | 3.14 ± 0.2
53 | INDKRANLMLVMLRLLL [SRB4] | 1.6 ± 0.039 | 1.61 ± 0.047 | 1.97 ± 0.067 | 1.94 ± 0.04
54 | KSDDDDHTVDEIDHVEY [SRB8] | 2.45 ± 0.069 | 2.46 ± 0.08 | 2.98 ± 0.1 | 2.91 ± 0.048
